Consider one molecule from PMC3354639 (Chembiochem, 2012).

No end group written: not given here. *: point of attachment. BODIPY(FL) = CC1=CC(C)=[N+]2C1=Cc1ccc(CCC(=O)*)n1[B-]2(F)F Bounds are passed on as bounds.

What all share (assay): flow cytometry on cells
In general terms: A flow cytometer gives signals particle by particle.

In test [1] the target is construct 1 cleaved at the Ala-Arg site by OmpT-AR1 (MDM2-polyArg part) (UniProt Q00987 25-125).
Test [2] concerns the target MDM2-polyArg (construct 2) (UniProt Q00987 17-125).
Test [3] addresses autoinhibited-substrate-MDM2-polyArg (construct 1) (UniProt Q00987 25-125).

B1: PMI peptide conjugated to the fluorescent dye BODIPY (peptide)
peptide: {BODIPY(FL)}-GTSFAEYWNLLSP
As for B1, the binding result in test [1] and in test [2] was “binds” throughout. The “fold reduction in fluorescence against construct 2” value in test [3] was over 10 fold.
